Test results: US20210388087A1 (Chugai, published 2021)

B1: CE115HA000 H96P one-arm antibody (antibody, human IgG1, kappa, L234A L235A, N297A, name in Kabat numbering)
heavy: QVQLVESGGGVVQPGRSLRLSCAASGFTFSNAWMHWVRQAPGKGLEWVAQIKAKSNNYATYYAESVKGRFTISRDDSKNSLYLQMNSLKTEDTAVYYCRYVPYGAYYGVDAWGQGTTVTVSSASTKGPSVFPLAPSSKSTSGGTAALGCLVKDYFPEPVTVSWNSGALTSGVHTFPAVLQSSGLYSLSSVVTVPSSSLGTQTYICNVNHKPSNTKVDKKVEPKSCDKTHTCPPCPAPEAAGGPSVFLFPPKPKDTLMISRTPEVTCVVVDVSHEDPEVKFNWYVDGVEVHNAKTKPREEQYASTYRVVSVLTVLHQDWLNGKEYKCKVSNKALPAPIEKTISKAKGQPREPQVYTLPPSRCELTKNQVSLSCAVKGFYPSDIAVEWESNGQPENNYKTTPPVLDSDGSFFLVSKLTVDKSRWQQGNVFSCSVMHEALHNHYTQKSLSLSPDYKDDDDK
chain: EPKSSDKTHTCPPCPAPELLGGPSVFLFPPKPKDTLMISRTPEVTCVVVDVSHEDPEVKFNWYVDGVEVHNAKTKPREEQYNSTYRVVSVLTVLHQDWLNGKEYKCKVSNKALPAPIEKTISKAKGQPREPQVCTLPPSRDELTKNQVSLWCLVKGFYPSDIAVEWESNGQPENNYKTTPPVLDSDGSFFLYSKLTVDKSRWQQGNVFSCSVMHEALHNRYTQKSLSLSP
light: DIVMTQSPLSLPVTPGEPASISCRSSQSLVHSNRNTYLHWYQQKPGQAPRLLIYKVSNRFSGVPDRFSGSGSGTDFTLKISRVEAEDVGVYYCGQGTQVPYTFGQGTKLEIKRTVAAPSVFIFPPSDEQLKSGTASVVCLLNNFYPREAKVQWKVDNALQSGNSQESVTEQDSKDSTYSLSSTLTLSKADYEKHKVYACEVTHQGLSSPVTKSFNRGEC
B2: CE115HA000 H96Q one-arm antibody (antibody, human IgG1, kappa, L234A L235A, N297A, name in Kabat numbering)
heavy: QVQLVESGGGVVQPGRSLRLSCAASGFTFSNAWMHWVRQAPGKGLEWVAQIKAKSNNYATYYAESVKGRFTISRDDSKNSLYLQMNSLKTEDTAVYYCRYVQYGAYYGVDAWGQGTTVTVSSASTKGPSVFPLAPSSKSTSGGTAALGCLVKDYFPEPVTVSWNSGALTSGVHTFPAVLQSSGLYSLSSVVTVPSSSLGTQTYICNVNHKPSNTKVDKKVEPKSCDKTHTCPPCPAPEAAGGPSVFLFPPKPKDTLMISRTPEVTCVVVDVSHEDPEVKFNWYVDGVEVHNAKTKPREEQYASTYRVVSVLTVLHQDWLNGKEYKCKVSNKALPAPIEKTISKAKGQPREPQVYTLPPSRCELTKNQVSLSCAVKGFYPSDIAVEWESNGQPENNYKTTPPVLDSDGSFFLVSKLTVDKSRWQQGNVFSCSVMHEALHNHYTQKSLSLSPDYKDDDDK
chain: EPKSSDKTHTCPPCPAPELLGGPSVFLFPPKPKDTLMISRTPEVTCVVVDVSHEDPEVKFNWYVDGVEVHNAKTKPREEQYNSTYRVVSVLTVLHQDWLNGKEYKCKVSNKALPAPIEKTISKAKGQPREPQVCTLPPSRDELTKNQVSLWCLVKGFYPSDIAVEWESNGQPENNYKTTPPVLDSDGSFFLYSKLTVDKSRWQQGNVFSCSVMHEALHNRYTQKSLSLSP
light: DIVMTQSPLSLPVTPGEPASISCRSSQSLVHSNRNTYLHWYQQKPGQAPRLLIYKVSNRFSGVPDRFSGSGSGTDFTLKISRVEAEDVGVYYCGQGTQVPYTFGQGTKLEIKRTVAAPSVFIFPPSDEQLKSGTASVVCLLNNFYPREAKVQWKVDNALQSGNSQESVTEQDSKDSTYSLSSTLTLSKADYEKHKVYACEVTHQGLSSPVTKSFNRGEC
B3: CE115HA000 H96S one-arm antibody (antibody, human IgG1, kappa, L234A L235A, N297A, name in Kabat numbering)
heavy: QVQLVESGGGVVQPGRSLRLSCAASGFTFSNAWMHWVRQAPGKGLEWVAQIKAKSNNYATYYAESVKGRFTISRDDSKNSLYLQMNSLKTEDTAVYYCRYVSYGAYYGVDAWGQGTTVTVSSASTKGPSVFPLAPSSKSTSGGTAALGCLVKDYFPEPVTVSWNSGALTSGVHTFPAVLQSSGLYSLSSVVTVPSSSLGTQTYICNVNHKPSNTKVDKKVEPKSCDKTHTCPPCPAPEAAGGPSVFLFPPKPKDTLMISRTPEVTCVVVDVSHEDPEVKFNWYVDGVEVHNAKTKPREEQYASTYRVVSVLTVLHQDWLNGKEYKCKVSNKALPAPIEKTISKAKGQPREPQVYTLPPSRCELTKNQVSLSCAVKGFYPSDIAVEWESNGQPENNYKTTPPVLDSDGSFFLVSKLTVDKSRWQQGNVFSCSVMHEALHNHYTQKSLSLSPDYKDDDDK
chain: EPKSSDKTHTCPPCPAPELLGGPSVFLFPPKPKDTLMISRTPEVTCVVVDVSHEDPEVKFNWYVDGVEVHNAKTKPREEQYNSTYRVVSVLTVLHQDWLNGKEYKCKVSNKALPAPIEKTISKAKGQPREPQVCTLPPSRDELTKNQVSLWCLVKGFYPSDIAVEWESNGQPENNYKTTPPVLDSDGSFFLYSKLTVDKSRWQQGNVFSCSVMHEALHNRYTQKSLSLSP
light: DIVMTQSPLSLPVTPGEPASISCRSSQSLVHSNRNTYLHWYQQKPGQAPRLLIYKVSNRFSGVPDRFSGSGSGTDFTLKISRVEAEDVGVYYCGQGTQVPYTFGQGTKLEIKRTVAAPSVFIFPPSDEQLKSGTASVVCLLNNFYPREAKVQWKVDNALQSGNSQESVTEQDSKDSTYSLSSTLTLSKADYEKHKVYACEVTHQGLSSPVTKSFNRGEC
B4: CE115HA000 H96R one-arm antibody (antibody, human IgG1, kappa, L234A L235A, N297A, name in Kabat numbering)
heavy: QVQLVESGGGVVQPGRSLRLSCAASGFTFSNAWMHWVRQAPGKGLEWVAQIKAKSNNYATYYAESVKGRFTISRDDSKNSLYLQMNSLKTEDTAVYYCRYVRYGAYYGVDAWGQGTTVTVSSASTKGPSVFPLAPSSKSTSGGTAALGCLVKDYFPEPVTVSWNSGALTSGVHTFPAVLQSSGLYSLSSVVTVPSSSLGTQTYICNVNHKPSNTKVDKKVEPKSCDKTHTCPPCPAPEAAGGPSVFLFPPKPKDTLMISRTPEVTCVVVDVSHEDPEVKFNWYVDGVEVHNAKTKPREEQYASTYRVVSVLTVLHQDWLNGKEYKCKVSNKALPAPIEKTISKAKGQPREPQVYTLPPSRCELTKNQVSLSCAVKGFYPSDIAVEWESNGQPENNYKTTPPVLDSDGSFFLVSKLTVDKSRWQQGNVFSCSVMHEALHNHYTQKSLSLSPDYKDDDDK
chain: EPKSSDKTHTCPPCPAPELLGGPSVFLFPPKPKDTLMISRTPEVTCVVVDVSHEDPEVKFNWYVDGVEVHNAKTKPREEQYNSTYRVVSVLTVLHQDWLNGKEYKCKVSNKALPAPIEKTISKAKGQPREPQVCTLPPSRDELTKNQVSLWCLVKGFYPSDIAVEWESNGQPENNYKTTPPVLDSDGSFFLYSKLTVDKSRWQQGNVFSCSVMHEALHNRYTQKSLSLSP
light: DIVMTQSPLSLPVTPGEPASISCRSSQSLVHSNRNTYLHWYQQKPGQAPRLLIYKVSNRFSGVPDRFSGSGSGTDFTLKISRVEAEDVGVYYCGQGTQVPYTFGQGTKLEIKRTVAAPSVFIFPPSDEQLKSGTASVVCLLNNFYPREAKVQWKVDNALQSGNSQESVTEQDSKDSTYSLSSTLTLSKADYEKHKVYACEVTHQGLSSPVTKSFNRGEC

These binders were tested against T1, CD3 epsilon homodimer protein (UniProt P07766 23-126) (assay: SPR (Biacore T200), CD3 epsilon homodimer on CM4 chip, one-arm antibody as analyte, 25 C;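 also: homodimer attached to the sensor surface via amine coupling, HBS-EP+ used as running buffer during binding runs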).
T1 construct: immobilized on Sensor chip CM4 by amine coupling; also called CD3 (CD3 epsilon)
T1 sequence (P07766 23-126): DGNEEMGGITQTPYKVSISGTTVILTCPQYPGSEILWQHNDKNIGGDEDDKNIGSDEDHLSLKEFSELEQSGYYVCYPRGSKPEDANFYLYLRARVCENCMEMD

In order of falling “ratio of amounts bound (altered form / CE115HA000)” value:
1. B4  0.46
2. B3  0.44
3. B2  0.42
4. B1  0.12
